Results as given in PMC4569521 (Journal of molecular biology, 2015).
Where no end group is shown, it is not given here. fluorescein = fluorescein label at the N-terminus

Biological target: T1, N-domain of ClpX (residue 1–64) (E. coli, UniProt P0A6H1 1-64)
T1 sequence (looked up): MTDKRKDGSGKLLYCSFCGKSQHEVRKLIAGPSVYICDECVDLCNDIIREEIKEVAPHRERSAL
Assay: fluorescence polarisation

B1: fluorescein-labeled E-tag peptide (MuA residues 614–633) (peptide)
peptide: fluorescein-ESRIVGIFRPSGNTERVKNQ
Kd: ~380 µM
